Experimental data published in US20190134153A1, “IMMUNOMODULATORY EFFECT OF INHALED KINASE INHIBITOR PEPTIDES IN LUNG” (MOERAE MATRIX, INC., priority 2017, published 2019).

Key:
Assay in all cases: Kinase Profiling Assay
Format in all cases: biochemical
Conditions in all cases: 100 μM
CHK2(I157T)(h) = CHK2(I157T)(h) (Homo sapiens, UniProt O96017, I157T)
EphB4(h) = target: T1, EphB4(h) (Homo sapiens, UniProt P54760)
T1 sequence (P54760 16-987): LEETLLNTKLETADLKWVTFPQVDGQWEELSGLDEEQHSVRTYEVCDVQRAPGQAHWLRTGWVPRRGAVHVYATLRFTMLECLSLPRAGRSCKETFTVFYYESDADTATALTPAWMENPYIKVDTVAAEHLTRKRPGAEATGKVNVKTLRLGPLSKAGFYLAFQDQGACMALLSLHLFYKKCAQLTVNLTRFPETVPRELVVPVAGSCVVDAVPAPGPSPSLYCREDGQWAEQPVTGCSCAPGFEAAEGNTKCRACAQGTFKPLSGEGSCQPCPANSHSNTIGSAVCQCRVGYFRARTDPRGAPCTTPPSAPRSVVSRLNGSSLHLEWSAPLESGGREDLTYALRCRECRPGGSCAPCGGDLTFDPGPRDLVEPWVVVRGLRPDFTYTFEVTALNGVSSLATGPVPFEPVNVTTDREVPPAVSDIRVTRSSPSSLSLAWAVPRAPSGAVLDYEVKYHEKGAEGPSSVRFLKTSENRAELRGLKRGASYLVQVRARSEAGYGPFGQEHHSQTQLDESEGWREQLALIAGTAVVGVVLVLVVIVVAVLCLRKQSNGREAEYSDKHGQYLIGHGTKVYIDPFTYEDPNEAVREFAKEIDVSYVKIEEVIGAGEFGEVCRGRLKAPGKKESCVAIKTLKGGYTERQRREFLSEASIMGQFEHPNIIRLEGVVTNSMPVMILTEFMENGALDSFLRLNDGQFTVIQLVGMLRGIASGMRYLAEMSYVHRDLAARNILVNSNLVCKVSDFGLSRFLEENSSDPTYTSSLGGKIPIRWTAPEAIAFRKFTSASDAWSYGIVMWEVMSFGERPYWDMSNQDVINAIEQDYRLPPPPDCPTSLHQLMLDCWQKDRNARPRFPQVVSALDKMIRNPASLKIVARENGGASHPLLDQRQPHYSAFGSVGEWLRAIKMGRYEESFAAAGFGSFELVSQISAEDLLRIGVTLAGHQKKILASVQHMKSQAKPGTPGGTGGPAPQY

Fer(h) = Fer(h) (Homo sapiens, UniProt P16591)
Chain of Fer(h) (P16591 whole entry): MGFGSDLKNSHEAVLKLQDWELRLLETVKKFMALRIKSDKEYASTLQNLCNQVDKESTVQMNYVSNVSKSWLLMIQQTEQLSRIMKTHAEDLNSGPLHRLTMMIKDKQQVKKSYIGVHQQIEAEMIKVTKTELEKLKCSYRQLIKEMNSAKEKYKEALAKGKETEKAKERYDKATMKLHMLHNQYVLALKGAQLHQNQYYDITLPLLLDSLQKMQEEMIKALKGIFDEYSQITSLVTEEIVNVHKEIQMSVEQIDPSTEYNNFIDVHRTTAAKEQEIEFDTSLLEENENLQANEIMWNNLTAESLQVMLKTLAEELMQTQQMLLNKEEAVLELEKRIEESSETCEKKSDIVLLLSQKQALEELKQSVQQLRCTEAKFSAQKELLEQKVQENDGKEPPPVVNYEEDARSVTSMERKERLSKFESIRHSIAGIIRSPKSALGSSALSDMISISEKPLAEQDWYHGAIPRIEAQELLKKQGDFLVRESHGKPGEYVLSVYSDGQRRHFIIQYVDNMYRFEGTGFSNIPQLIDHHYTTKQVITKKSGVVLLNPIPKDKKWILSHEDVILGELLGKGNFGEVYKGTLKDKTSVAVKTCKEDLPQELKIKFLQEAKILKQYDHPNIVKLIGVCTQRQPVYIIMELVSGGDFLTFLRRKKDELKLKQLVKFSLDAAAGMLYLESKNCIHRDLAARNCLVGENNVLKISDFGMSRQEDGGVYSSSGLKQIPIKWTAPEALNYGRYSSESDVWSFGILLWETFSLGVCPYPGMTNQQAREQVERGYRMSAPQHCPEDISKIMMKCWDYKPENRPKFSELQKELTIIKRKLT

GRK6(h) = GRK6(h) (Homo sapiens, UniProt P43250)
Chain of GRK6(h) (P43250 whole entry): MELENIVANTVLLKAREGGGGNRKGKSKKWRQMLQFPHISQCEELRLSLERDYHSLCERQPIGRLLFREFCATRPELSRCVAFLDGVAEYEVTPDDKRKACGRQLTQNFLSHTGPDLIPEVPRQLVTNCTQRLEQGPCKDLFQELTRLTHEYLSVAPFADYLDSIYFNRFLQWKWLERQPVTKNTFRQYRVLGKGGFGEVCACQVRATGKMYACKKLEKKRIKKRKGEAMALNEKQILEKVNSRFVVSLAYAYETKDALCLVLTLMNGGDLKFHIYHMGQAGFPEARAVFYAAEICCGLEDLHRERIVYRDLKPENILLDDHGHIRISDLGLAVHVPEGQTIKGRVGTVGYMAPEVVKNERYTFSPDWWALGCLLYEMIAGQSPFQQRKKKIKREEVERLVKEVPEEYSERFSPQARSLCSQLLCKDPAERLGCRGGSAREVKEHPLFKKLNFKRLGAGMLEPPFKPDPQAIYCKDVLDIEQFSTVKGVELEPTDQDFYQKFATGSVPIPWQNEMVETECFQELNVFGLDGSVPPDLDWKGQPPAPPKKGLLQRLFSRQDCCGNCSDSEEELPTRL

Met(M1268T)(h) = Met(M1268T)(h) (Homo sapiens, UniProt P08581, M1250T)
Met(Y1248H)(h) = Met(Y1248H)(h) (Homo sapiens, UniProt P08581, Y1230H)
Pim-2(h) = Pim-2(h) (Homo sapiens, UniProt Q9P1W9)
PKG1β(h) = target: T2, PKG1β(h) (Homo sapiens, UniProt Q13976)
T2 sequence (Q13976 1-686 isoform Q13976-2): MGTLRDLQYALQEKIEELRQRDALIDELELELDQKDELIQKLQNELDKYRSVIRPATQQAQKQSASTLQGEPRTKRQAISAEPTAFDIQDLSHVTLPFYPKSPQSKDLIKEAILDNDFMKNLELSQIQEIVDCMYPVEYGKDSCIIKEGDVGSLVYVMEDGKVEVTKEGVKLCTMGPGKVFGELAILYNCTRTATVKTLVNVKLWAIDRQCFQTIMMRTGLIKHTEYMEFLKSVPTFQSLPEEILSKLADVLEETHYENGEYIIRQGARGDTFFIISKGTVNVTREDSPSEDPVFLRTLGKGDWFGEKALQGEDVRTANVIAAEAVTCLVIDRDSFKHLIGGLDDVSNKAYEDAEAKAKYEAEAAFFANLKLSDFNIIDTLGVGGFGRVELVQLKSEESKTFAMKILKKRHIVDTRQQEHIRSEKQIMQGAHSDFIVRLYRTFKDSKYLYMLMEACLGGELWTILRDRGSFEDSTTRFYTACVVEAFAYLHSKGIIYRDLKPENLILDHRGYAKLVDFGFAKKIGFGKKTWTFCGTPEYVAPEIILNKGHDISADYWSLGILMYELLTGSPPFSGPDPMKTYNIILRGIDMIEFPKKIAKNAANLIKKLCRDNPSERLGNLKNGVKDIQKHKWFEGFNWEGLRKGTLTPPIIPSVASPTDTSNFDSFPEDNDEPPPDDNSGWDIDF

Rsk4(h) = Rsk4(h) (Homo sapiens, UniProt Q9UK32)
Chain of Rsk4(h) (Q9UK32 whole entry): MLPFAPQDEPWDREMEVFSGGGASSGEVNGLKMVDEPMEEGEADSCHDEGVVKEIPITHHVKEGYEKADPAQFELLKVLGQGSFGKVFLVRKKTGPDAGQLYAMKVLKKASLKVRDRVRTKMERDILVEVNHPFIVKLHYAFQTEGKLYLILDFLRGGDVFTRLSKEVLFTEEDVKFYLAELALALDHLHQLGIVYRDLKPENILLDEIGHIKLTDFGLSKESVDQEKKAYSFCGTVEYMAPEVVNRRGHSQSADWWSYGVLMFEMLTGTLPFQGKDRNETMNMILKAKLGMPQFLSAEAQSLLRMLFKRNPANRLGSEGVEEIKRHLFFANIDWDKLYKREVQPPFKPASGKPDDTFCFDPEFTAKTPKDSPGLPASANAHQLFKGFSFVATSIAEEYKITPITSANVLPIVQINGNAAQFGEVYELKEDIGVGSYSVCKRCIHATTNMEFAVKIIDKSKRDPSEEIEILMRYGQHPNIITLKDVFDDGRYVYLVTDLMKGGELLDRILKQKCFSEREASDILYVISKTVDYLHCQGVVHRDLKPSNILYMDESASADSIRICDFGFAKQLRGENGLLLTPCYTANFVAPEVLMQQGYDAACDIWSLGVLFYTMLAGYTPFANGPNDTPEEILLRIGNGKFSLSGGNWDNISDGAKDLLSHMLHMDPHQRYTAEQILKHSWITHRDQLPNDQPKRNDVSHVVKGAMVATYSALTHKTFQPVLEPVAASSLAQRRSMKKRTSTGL

WNK3(h) = WNK3(h) (Homo sapiens, UniProt Q9BYP7)
CDK9/cyclin T1(h) = CDK9/cyclin T1(h) (Homo sapiens, UniProt P50750)
Chain of CDK9/cyclin T1(h) (P50750 whole entry): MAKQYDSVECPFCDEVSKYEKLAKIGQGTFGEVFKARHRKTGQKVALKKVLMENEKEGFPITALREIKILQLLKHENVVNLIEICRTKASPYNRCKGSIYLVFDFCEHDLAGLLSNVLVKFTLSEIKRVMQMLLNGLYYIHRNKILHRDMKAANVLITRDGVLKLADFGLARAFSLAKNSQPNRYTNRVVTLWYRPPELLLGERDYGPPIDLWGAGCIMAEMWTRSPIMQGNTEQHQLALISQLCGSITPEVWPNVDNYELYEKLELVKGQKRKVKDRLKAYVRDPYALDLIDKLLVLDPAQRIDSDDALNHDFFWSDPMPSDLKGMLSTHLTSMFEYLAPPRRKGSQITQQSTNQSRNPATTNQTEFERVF
Chain of CDK9/cyclin T1(h) (O60563 whole entry partner): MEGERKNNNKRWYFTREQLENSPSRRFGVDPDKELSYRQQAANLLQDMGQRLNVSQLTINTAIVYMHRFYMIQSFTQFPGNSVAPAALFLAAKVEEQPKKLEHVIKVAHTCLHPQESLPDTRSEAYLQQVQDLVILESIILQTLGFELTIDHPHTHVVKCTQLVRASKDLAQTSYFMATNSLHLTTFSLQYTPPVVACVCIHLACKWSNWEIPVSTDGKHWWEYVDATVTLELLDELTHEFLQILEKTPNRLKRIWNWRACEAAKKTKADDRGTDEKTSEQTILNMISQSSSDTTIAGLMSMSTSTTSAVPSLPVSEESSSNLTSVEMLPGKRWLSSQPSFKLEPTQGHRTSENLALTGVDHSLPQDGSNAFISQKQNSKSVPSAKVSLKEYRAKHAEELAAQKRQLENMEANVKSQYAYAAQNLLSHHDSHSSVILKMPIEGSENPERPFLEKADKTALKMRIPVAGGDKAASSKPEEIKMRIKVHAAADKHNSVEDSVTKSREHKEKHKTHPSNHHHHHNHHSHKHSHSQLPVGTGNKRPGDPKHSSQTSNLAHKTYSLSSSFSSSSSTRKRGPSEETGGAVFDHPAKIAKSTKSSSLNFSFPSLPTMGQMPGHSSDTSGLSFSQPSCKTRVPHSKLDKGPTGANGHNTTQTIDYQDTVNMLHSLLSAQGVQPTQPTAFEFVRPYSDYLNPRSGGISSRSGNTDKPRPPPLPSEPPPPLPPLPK

Hck(h) = Hck(h) (Homo sapiens, UniProt P08631)
JNK2α2(h) = JNK2α2(h) (Homo sapiens, UniProt P45984)
MEK1(h) = MEK1(h) (Homo sapiens, UniProt Q02750)
PDGFRα(V561D)(h) = PDGFRα(V561D)(h) (Homo sapiens, UniProt P16234, V561D)
Chain of PDGFRα(V561D)(h) (P16234 24-1089 V561D): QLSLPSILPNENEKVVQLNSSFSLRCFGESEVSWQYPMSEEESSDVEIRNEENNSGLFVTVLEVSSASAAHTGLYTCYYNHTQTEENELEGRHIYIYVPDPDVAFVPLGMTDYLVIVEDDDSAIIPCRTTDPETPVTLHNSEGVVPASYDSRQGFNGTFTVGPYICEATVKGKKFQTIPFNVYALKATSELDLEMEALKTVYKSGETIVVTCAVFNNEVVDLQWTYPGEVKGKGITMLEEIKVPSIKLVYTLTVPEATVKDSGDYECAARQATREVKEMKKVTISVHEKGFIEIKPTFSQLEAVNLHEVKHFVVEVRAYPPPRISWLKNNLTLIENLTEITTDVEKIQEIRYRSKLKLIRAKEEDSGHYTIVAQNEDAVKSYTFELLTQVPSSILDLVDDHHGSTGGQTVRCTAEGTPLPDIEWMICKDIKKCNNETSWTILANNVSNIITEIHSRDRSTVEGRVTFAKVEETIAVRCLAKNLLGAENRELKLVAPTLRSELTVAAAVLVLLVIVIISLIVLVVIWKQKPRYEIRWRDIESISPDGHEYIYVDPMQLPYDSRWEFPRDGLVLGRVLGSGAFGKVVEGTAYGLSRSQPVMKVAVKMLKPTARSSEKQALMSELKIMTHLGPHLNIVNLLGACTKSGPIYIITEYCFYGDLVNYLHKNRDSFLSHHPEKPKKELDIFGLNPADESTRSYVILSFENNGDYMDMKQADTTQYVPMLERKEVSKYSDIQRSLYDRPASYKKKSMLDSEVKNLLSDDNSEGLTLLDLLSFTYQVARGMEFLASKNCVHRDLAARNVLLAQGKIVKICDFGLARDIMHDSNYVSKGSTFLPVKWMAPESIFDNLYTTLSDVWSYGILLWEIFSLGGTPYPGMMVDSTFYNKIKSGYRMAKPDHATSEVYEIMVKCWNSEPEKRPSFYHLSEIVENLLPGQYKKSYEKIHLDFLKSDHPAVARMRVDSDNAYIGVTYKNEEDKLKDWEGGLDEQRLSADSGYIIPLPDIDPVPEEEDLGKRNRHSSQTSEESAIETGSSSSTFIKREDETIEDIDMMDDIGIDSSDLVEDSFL

Ret(V804M)(h) = Ret(V804M)(h) (Homo sapiens, UniProt P07949, V804M)

Chain of CHK2(I157T)(h) (O96017 whole entry I157T): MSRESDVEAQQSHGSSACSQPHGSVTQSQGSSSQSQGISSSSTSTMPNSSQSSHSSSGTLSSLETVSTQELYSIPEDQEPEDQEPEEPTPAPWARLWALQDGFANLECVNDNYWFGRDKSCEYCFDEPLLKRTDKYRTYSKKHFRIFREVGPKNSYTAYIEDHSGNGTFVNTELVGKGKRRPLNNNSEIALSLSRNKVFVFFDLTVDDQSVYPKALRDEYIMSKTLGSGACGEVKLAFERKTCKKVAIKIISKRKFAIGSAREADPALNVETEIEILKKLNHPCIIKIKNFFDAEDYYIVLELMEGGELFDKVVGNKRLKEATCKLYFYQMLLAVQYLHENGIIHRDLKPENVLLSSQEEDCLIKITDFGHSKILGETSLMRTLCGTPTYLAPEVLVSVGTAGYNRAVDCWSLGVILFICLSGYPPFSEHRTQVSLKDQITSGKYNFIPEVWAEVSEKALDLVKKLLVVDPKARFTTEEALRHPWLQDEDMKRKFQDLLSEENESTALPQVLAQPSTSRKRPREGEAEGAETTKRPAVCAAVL

Row | Sequence | % activity (CHK2(I157T)(h)) [%] | % activity (EphB4(h)) [%] | % activity (Fer(h)) [%] | % activity (GRK6(h)) [%] | % activity (Met(M1268T)(h)) [%] | % activity (Met(Y1248H)(h)) [%] | % activity (Pim-2(h)) [%] | % activity (PKG1β(h)) [%] | % activity (Rsk4(h)) [%] | % activity (WNK3(h)) [%] | % activity (CDK9/cyclin T1(h)) [%] | % activity (Hck(h)) [%] | % activity (JNK2α2(h)) [%] | % activity (MEK1(h)) [%] | % activity (PDGFRα(V561D)(h)) [%] | % activity (Ret(V804M)(h)) [%]
1 | YARAAARQARAKALNRQLGVA [MMI-0200] | 85 | 131 | 101 | 132 | 143 | 153 | 74 | 57 | 125 | 97 | – | – | – | – | – | –
2 | KAFAKLAARLYRKALARQLGVAA [MMI-0400] | 41 | 28 | 108 | 141 | 265 | 63 | 92 | 53 | 91 | 74 | 235 | 72 | 96 | 77 | 100 | 87
3 | HRRIKAWLKKIKALARQLGVAA [MMI-0500] | 3 | 38 | 196 | 174 | 239 | 126 | 46 | 24 | 29 | 9 | 6 | 78 | 81 | 21 | 146 | 36
4 | FAKLAARLYRKALARQLGVAA [MMI-0300] | 43 | 44 | 130 | 147 | 255 | – | 76 | 50 | 90 | 77 | 91 | 72 | 98 | 77 | 82 | 95
